Read-outs that look alike come from different tables or passages of the source. A value given as a limit tells only on which side of the number the result lay.

Consider 13 molecules from patent publication US20250170216A1 (Protagonist Therapeutics, Inc., priority 2022, published 2025).

The target in assay [1] is T1, ferroportin (Homo sapiens, UniProt Q9NP59).
T1 sequence (Q9NP59 1-571): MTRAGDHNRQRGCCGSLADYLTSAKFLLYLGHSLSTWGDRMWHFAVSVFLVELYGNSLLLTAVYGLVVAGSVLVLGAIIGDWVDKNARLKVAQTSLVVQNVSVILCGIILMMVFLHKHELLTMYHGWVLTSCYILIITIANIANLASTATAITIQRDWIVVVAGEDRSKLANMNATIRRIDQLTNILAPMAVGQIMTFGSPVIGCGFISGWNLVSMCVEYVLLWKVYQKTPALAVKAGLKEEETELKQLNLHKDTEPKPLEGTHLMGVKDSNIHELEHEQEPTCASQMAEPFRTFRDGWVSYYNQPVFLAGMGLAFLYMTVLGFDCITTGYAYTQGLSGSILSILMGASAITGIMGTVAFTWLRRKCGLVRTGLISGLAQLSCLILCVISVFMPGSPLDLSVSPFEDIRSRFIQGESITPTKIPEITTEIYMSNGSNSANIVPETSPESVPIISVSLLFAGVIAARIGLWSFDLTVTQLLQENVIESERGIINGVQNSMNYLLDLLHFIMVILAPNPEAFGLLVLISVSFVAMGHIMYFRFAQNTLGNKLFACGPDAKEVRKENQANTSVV
Kind of assay: FPN activity assay: internalization of ferroportin-GFP in stably transfected HEK293 cells. Format: cell-based. Further details: expressed in transfected cells. How it is done:
Peptide analogues were tested in vitro for induction of internalization of the human ferroportin protein. Following internalization, the ferroporin protein is degraded. The assay used (FPN activity assay) measures a decrease in fluorescence of the receptor. The cDNA encoding the human ferroportin (SLC40A1) was cloned from a cDNA clone from Origene (NM_014585). The DNA encoding the ferroportin was amplified by PCR using primers also encoding terminal restriction sites for subcloning, but without the termination codon. The ferroportin receptor was subcloned into a mammalian GFP expression vector containing a neomycin (G418) resistance marker in such that the reading frame of the ferroportin was fused in frame with the GFP protein. The fidelity of the DNA encoding the protein was confirmed by DNA sequencing. HEK293 cells were used for transfection of the ferroportin-GFP receptor expression plasmid. The cells were grown according to standard protocol in growth medium and transfected with the plasmids using Lipofectamine (manufacturer's protocol, Invitrogen). […] The EC50 of these reference compounds for ferroportin internalization/degradation was determined according to the FPN activity assay described above. […]

Assay [2] addresses ferroportin endogenously expressed on T47D cells (HTB 133, ATCC) (human) (UniProt Q9NP59). Kind of assay: cell-based or functional assay.
In assay [3] the target is T1, ferroportin. The assay is described as follows: T47D cell-based ferroportin internalization assay in presence of 0.5% mouse serum albumin (MSA). Further details: a human breast carcinoma adherent cell line which endogenously expresses ferroportin; host or cells: T47D. To be noted: Table 1C. How it is done: The potency of the peptides in causing ferroportin internalization was evaluated in a T47D cell-based assay. […] In this internalization assay, the potency of the test peptides was evaluated in the presence of serum albumin, which is the main protein component in the blood. T47D cells were maintained in RPMI media (containing required amount of fetal bovine serum) and regularly sub-cultured. In preparation for the assay, the cells were seeded in 96-well plates at a density of 80-100 k cells per well in 100 ul volume and allowed to rest overnight. On the next day, test peptides were first prepared in dilution series (10-point series, starting concentration of ˜5 μM, typically 3-4×fold dilution steps), all with 0.5% mouse serum albumin (MSA purified from mouse serum; Sigma, A3139). The test peptide dilution series were allowed to incubate at room temperature for 30 min. Then the media was aspirated from the 96-well cell plate and test peptide dilution series were added. […] The Median Fluorescence Intensity (MFI) of the AF647-positive population was measured (after removing dead cells and non-singlets from the analysis). […] The IC50 potencies were calculated by using 4-parameter non-linear fitting function in Graphpad Prism, and the results are provided in Table 1C.

Assay [4] concerns the target human ferroportin (SLC40A1) fused in frame with GFP, stably expressed in HEK293 cells (human) (UniProt Q9NP59). Kind of assay: cell-based or functional assay.
Assay [5] deals with T2, ferroportin fused to green fluorescent protein (Mus musculus, UniProt Q9JHI9).
T2 construct: expressed in transfected cells
T2 sequence (Q9JHI9 1-570): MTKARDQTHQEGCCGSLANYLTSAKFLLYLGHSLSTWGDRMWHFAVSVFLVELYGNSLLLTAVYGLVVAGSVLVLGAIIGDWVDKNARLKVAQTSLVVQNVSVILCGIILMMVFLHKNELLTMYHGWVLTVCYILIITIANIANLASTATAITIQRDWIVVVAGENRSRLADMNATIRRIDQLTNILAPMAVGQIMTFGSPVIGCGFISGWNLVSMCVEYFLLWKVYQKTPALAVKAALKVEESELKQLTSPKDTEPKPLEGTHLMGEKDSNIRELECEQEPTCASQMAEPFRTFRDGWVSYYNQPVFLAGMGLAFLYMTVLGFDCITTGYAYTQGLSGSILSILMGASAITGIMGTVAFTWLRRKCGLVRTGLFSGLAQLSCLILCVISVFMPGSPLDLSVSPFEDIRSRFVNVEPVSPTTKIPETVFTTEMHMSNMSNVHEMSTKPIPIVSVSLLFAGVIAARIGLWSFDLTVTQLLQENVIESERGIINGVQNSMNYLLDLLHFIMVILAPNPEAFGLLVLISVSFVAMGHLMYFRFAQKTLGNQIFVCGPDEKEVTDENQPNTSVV
The following applies: read-out: EC50 (loss of fluorescence); 24 hours incubation; Hep25 preparations; cited from earlier work.

Take `CC[C@@H](C)[C@@H](NC(=O)[C@H](N)Cc1ccccc1)C(=O)N[C@H](CS)C(=O)N[C@@H](C(=O)N1CCC[C@@H]1C(=O)N[C@H](Cc1ccccc1)C(=O)N[C@H](Cc1c[nH]cn1)C(=O)N[C@@H](C(=O)N[C@H](CC(=O)O)C(N)=O)[C@H](C)O)[C@H](C)CC` [RI-Mini Hepcidin, Hy-DPhe-DIle-DCys-DIle-DPro-DPhe-DHis-DThr-DAsp-NH2]: in assay [1] (Table 6 reference compounds, read-out: Potency EC50), the DC50 was over 10 µM.
As for “Isovaleric_Acid-E-T-H-DIP-P-C-I-dK-bhF-(Lys_Dap_C8_Diacid)-dK-C-NH2 (peptide)”, the IC50: T47D MSA (nM), T47D internalization assay; *=>500 nM in assay [2] was over 500 nM.
Take “Isovaleric_Acid-E-C-H-DIP-P-C-I-dK-DIP-(NMe_Lys_AlbuTag)-dK-C-am-Trimethylbenzene (peptide)”: in assay [2], the IC50: T47D MSA (nM), T47D internalization assay; *=>500 nM is over 500 nM.
The term IC50 denotes the concentration at which inhibition is half-maximal. On to `CC[C@H](C)[C@@H]1NC(=O)[C@@H](NC(=O)[C@@H]2CCCN2C(=O)[C@@H](NC(=O)[C@H](Cc2cnc[nH]2)NC(=O)[C@@H](NC(=O)[C@H](CCC(=O)O)NC(=O)CC(C)C)[C@@H](C)O)C(c2ccccc2)c2ccccc2)CSSC(C)(C)[C@@H](C(N)=O)NC(=O)[C@@H](CCCCN)NC(=O)C[C@H](Cc2ccccc2)NC(=O)[C@H](CCCCNC(=O)CCOCCOCCOCCOCCOCCOCCOCCOCCOCCOCCOCCOCCNC(=O)CCCCCCCCCCC(=O)O)NC1=O` [compound 4], for which the DC50 in assay [1] (Table 1C, FPN internalization assay, read-out: IC50: FPN) was over 0.5 µM. Further, the IC50 in assay [3] lay in the range of 0.011 to 0.1 µM.
Consider “Isovaleric_Acid-E-T-H-DIP-P-C-I-[Lys_PEG12_C6_Diacid]-bhF-[dLys_PEG11_OMe]-Pen-NH2 (peptide)”, for which the IC50: T47D MSA (nM), T47D internalization assay; *=>500 nM in assay [2] is over 500 nM.
“Isovaleric_Acid-E-T-H-DIP-P-C-I-[Lys_1PEG2_1PEG2_Ahx_C4_Diacid]-bhF-[dLys_PEG11_OMe]-C-NH2 (peptide)” returned an IC50: FPN (nM), FPN internalization assay; *=IC50>500 nM in assay [4] of over 500 nM.
On to “Isovaleric_Acid-E-T-H-DIP-P-C-I-[Lys_PEG12_C12_Diacid]-bhF-dK-Pen-NH2 (peptide)”, for which the IC50: FPN (nM), FPN internalization assay; *=IC50>500 nM in assay [4] is over 500 nM.
For the molecule “Isovaleric_Acid-E-hSer-H-DIP-P-C-I-[Lys_1PEG2_1PEG2_Ahx_C18_Diacid]-bhF-[dLys_PEG11_OMe]-C-NH2 (peptide)”, the IC50: T47D MSA (nM), T47D internalization assay; *=>500 nM in assay [2] was over 500 nM.
Molecule “Isovaleric_Acid-E-C-H-DIP-P-C-I-dK-(NMe_Lys_AlbuTag)-dK-C-NH2-Trimethylbenzene (peptide)” registered an IC50: T47D MSA (nM), T47D internalization assay; *=>500 nM in assay [2] of over 500 nM. The same molecule yielded an IC50: FPN (nM), FPN internalization assay; *=IC50>500 nM in assay [4] of over 500 nM.
Mini-Hepcidin 1-9 (peptide) showed a Potency EC50 (nM), FPN activity assay in assay [4] of 712 nM.
In assay [4], Hepcidin (peptide) returned a Potency EC50 (nM), FPN activity assay of 34 nM.
As usually defined, the EC50 is the concentration needed to bring the measured effect to its halfway point. On to `CC[C@H](C)[C@@H]1NC(=O)[C@@H](NC(=O)[C@@H](NC(=O)[C@@H]2CCCN2C(=O)[C@H](Cc2ccccc2)NC(=O)[C@H](Cc2c[nH]cn2)NC(=O)[C@@H](NC(=O)[C@@H](N)CC(=O)O)[C@@H](C)O)[C@@H](C)CC)CSSC[C@@H](C(=O)N[C@@H](CCCCN)C(=O)N[C@H](C(=O)O)[C@@H](C)O)NC(=O)[C@@H]2CSSC[C@@H]3NC(=O)[C@@H]4CSSC[C@H](NC(=O)[C@H](Cc5ccccc5)NC1=O)C(=O)N[C@@H](CSSC[C@H](NC(=O)[C@H](CCCCN)NC(=O)[C@H](CO)NC(=O)[C@H](CCCNC(=N)N)NC(=O)[C@H](Cc1c[nH]cn1)NC3=O)C(=O)NCC(=O)N[C@@H](CCSC)C(=O)N2)C(=O)NCC(=O)N4` [Hepcidin, Hy-DTHFPIC(1)IFC(2)C(3)GC(2)C(4)HRSKC(3)GMC(4)C(1)KT-OH], for which the EC50 in assay [5] is 0.005 to 0.015 µM.
For RI-Mini Hepcidin (peptide), the Potency EC50 (nM), FPN activity assay in assay [4] is over 10000 nM.
